Experimental findings from patent publication US20260085114A1 (KYINNO BIOTECHNOLOGY, published 2026) are described below.

Test [1] concerns the target human CD3 protein (KACTUS) (human). Description: Fortebio BLI, antibody captured on AHC chip, human CD3 protein as analyte. In general terms: In BLI a coated tip is dipped into the sample, and binding shifts an interference pattern.
Test [2] addresses T1, human GPRC5D (G protein-coupled receptor class C group 5 member D), on cells (human, UniProt Q9NZD1 1-345).
T1 construct: whole, on cells; also called hGPRC5D
Put plainly: FACS on MM.1R multiple myeloma cells. The method, then: (§1) 100 μl of FACS buffer was then added to each FACS tube for resuspension. 5 μl of PE-labeled, anti-murine Fc tagged secondary antibody (Biolegend, catalog number 409304) was added according to instructions, and incubated at 4° C. in the dark for 30 mins. Then 1 ml of FACS buffer was added, and centrifuged at 1200 rpm at room temperature for 5 mins. The supernatant was discarded followed by washing three times.
(§2) The experimental process was as described in Example 4, and the cells used were replaced with multiple myeloma cells MM.1R (Kyinno, catalog number KC-0619) and MOLP8 (Kyinno, catalog number KC-0622). […] Control tube 1 (no antibody and secondary antibody, adding only cell suspension) and Control tube 2 (no antibody, adding only cell suspension and secondary antibody) were included.

The target of test [3] is T1, human GPRC5D (G protein-coupled …). Description: FACS on 293T cells expressing human GPRC5D. The method, then: as §1
Control tube 1 (no antibody and secondary antibody, adding only the cell suspension) and Control tube 2 (no antibody, adding only the cell suspension and the secondary antibody) were included.

Test [4] concerns the target T2, monkey (cyno) GPRC5D, on 293T cells (monkey (cyno)).
T2 construct: whole, on cells; also called monkey GPRC5D
Put plainly: FACS on 293T cells expressing monkey (cyno) GPRC5D. The protocol: as §1
The experimental process was as described in Example 4. […] Control tube 1 (no antibody and secondary antibody, adding only cell suspension) and Control tube 2 (no antibody, adding only cell suspension and secondary antibody) were included.

For test [5], the target named is T3, human GPRC5D protein (KACTUS, catalog number GPR-HM05P) (human, UniProt Q9NZD1 1-345, limits assumed).
T3 construct: Bought reagent used as analyte in the Fortebio assay; the construct is not described
T3 sequence (Q9NZD1 whole entry): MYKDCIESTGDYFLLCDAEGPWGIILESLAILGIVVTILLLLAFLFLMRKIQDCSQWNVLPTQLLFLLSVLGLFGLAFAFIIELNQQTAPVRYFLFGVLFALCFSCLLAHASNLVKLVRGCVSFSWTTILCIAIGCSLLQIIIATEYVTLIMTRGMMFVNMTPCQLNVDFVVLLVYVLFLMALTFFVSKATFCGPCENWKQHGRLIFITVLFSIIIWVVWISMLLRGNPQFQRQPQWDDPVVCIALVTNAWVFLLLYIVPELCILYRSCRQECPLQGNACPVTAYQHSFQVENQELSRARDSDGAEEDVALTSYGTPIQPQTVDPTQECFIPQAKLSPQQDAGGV
Put plainly: Fortebio BLI, antibody captured on AHC chip, human GPRC5D protein as analyte. The method, then:
Antibodies to be tested were prepared into solutions at concentration of 10 μg/mL using PBS buffer, and the antibodies were captured using the AHC chip according to Fortebio's instructions. The pre-prepared human GPRC5D proteins (KACTUS, catalog number GPR-HM05P) (protein starting at a highest concentration of 200 nM, 2-fold diluted, 6 gradients) were flowed through the chip, with the following specific conditions: flow rate 30 μl/min; antigen-antibody binding time 200 seconds, dissociation time 500 seconds. The measured results were fitted using the supporting software designed for the device to analyze the affinity between an antibody and an antigen.

Test [6] concerns the target T1, human GPRC5D (G protein-coupled …). Description: cell-based or functional assay.
For test [7], the target named is T4, human GPRC5C, on 293T cells (human, UniProt Q9NQ84 24-441).
T4 construct: whole, on cells; also called 293T-GPRC5C
T4 sequence (Q9NQ84 24-441): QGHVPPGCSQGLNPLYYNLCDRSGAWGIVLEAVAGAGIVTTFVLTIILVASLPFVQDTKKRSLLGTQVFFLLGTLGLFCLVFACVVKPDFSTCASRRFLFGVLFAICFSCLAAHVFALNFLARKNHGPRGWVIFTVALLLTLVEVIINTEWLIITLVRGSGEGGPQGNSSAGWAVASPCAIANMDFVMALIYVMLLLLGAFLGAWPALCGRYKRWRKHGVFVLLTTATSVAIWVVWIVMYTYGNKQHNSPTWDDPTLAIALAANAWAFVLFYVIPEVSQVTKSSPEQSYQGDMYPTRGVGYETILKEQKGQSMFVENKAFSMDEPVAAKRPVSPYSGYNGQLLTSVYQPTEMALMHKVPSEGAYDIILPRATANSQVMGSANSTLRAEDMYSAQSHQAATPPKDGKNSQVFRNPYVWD
Put plainly: FACS on 293T-GPRC5C cells, antibody at 2 µg/mL; control tubes 8.86 and 8.73. The method, then:
as §1
(§3) The experimental process was as described in Example 4, cells expressing other members of G protein-coupled receptor class C group 5 as follows were used: 293T cells expressing human GPRC5A, 293T-GPRC5A (Kyinno, catalog number KC-1888), 293T cells expressing human GPRC5B, 293T-GPRC5B (Kyinno, catalog number KC-1854), and 293T cells expressing human GPRC5C, 293T-GPRC5C (Kyinno, catalog number KC-1889). […] Control tube 1 (no antibody and secondary antibody, adding only cell suspension) and Control tube 2 (no antibody, adding only cell suspension and secondary antibody) were included.

Test [8] deals with T5, human GPRC5B, on 293T cells (human, UniProt Q9NZH0 29-403).
T5 construct: whole, on cells; also called 293T-GPRC5B
T5 sequence (Q9NZH0 29-403): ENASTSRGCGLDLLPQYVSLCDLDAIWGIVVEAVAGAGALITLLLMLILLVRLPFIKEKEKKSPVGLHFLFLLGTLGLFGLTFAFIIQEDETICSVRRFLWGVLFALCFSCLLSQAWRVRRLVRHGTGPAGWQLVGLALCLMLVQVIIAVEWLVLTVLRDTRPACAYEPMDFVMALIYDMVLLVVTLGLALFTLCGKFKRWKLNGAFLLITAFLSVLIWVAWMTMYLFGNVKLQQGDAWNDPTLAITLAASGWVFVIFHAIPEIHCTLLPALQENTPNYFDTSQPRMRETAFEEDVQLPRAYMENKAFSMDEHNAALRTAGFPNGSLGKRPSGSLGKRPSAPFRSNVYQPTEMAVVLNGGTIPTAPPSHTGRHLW
Put plainly: FACS on 293T-GPRC5B cells, antibody at 2 µg/mL; control tubes 8.55 and 8.26. The method, then:
as §1, §3

The target in test [9] is T1, human GPRC5D (G protein-coupled …). Put plainly: FACS on MOLP8 multiple myeloma cells. The method, then:
as §1, §2

The target in test [10] is T6, human GPRC5A, on 293T cells (human, UniProt Q8NFJ5 1-357).
T6 construct: whole, on cells; also called 293T-GPRC5A
T6 sequence (Q8NFJ5 whole entry): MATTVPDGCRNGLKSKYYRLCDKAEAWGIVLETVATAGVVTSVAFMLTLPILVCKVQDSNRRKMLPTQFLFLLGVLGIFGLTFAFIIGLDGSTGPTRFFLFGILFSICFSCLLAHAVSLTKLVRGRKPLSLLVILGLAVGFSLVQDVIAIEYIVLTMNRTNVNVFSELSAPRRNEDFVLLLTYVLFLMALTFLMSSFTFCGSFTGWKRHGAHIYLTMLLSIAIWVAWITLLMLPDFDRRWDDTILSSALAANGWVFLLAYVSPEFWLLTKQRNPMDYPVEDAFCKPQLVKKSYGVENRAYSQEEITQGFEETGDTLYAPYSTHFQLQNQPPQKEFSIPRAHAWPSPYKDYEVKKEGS
Description: FACS on 293T-GPRC5A cells, antibody at 2 µg/mL; control tubes 8.30 and 8.41. The protocol: as §1, §3

T1 sequence (Q9NZD1 whole entry): as the sequence (Q9NZD1 whole entry) above
Sequence of human CD3 protein (KACTUS) (human) (chain, as listed by the source): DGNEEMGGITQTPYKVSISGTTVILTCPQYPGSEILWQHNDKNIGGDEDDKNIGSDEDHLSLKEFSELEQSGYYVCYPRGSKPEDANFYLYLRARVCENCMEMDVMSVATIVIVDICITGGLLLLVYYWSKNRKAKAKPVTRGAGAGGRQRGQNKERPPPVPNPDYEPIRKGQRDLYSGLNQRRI

B1: humanized anti-CD3 antibody SP34V1 (hz) (antibody, V domains shown)
VH: QVQLVESGGGLVKPGGSLRLSCAASGFTFSTYAMNWVRQAPGKGLEWVGRIRSKYNNYATYYADSVKDRFTISRDDAKNSLYLQMNSLRAEDTAVYYCARHGNFGNSYVSYFAYWGQGTTVTVSS
VL: DIQMTQSPSSLSASVGDRVTITCRSSTGAVTTSNYANWVQQKPGKAPKALIGGTNKRAPGVPSRFSGSLSGDDATLTISSLQPEDFATYYCALWYSNLWVFGQGTRLEIKR
The Kd is the constant that tells how readily two partners part at equilibrium. Broadly, the koff is a measure of how fast the partners let go of each other. A word on the kon: it is the rate constant with which the complex forms. Turning to B1, in test [1], the affinity, expressed as Kd, was 18 nM; the koff was determined as 0.00795 s⁻¹; the kon turned out to be 442000 M⁻¹ s⁻¹.

B2: humanized antibody 24F5 (hz) (antibody, V domains shown)
VH: QVQLVQSGAEVKKPGASVKVSCKASGYTFPYYVMHWVRQAPGQGLEWIGYINPYNDGTKYNEKFKGRATLTSDKSTSTAYMELSSLRSEDTAVYYCARGGVRRYFDYWGQGTTVTVSS
VL: DIQMTQSPSTLSASVGDRVTITCRASQDIGSNLNWLQQKPGGTIKRLIYATSSLDSGVPSRFSGSRSGSEYTLTISSLQPDDFATYYCLQYATFPYTFGQGTRLEIKR
By EC50 is commonly meant the concentration needed to bring the measured effect to its halfway point. In the case of B2, the EC50 was determined as 0.0682 µg/mL in [2], 0.7 µg/mL in [3], 0.167 µg/mL in [4] and 0.581 µg/mL in [9]. Moreover, the MFI.Max in test [2] was determined as 177 MFI; in [3], 8910 MFI; in test [4], 3560 MFI; in [9] it was 133 MFI. Besides, the Kd in [5] was determined as 1.36 nM. For the same molecule, the off-rate constant (koff) in test [5] was 5.42e-05 s⁻¹. The molecule further returned a kon in test [5] of 39900 M⁻¹ s⁻¹. The “ADCC reporter (Jurkat-NFAT-luc-CD16-V158 luciferase), Top” value (from here on “ADCC reporter … Top”) in test [6] turned out to be 25.4. Besides, the FACS result in [7] worked out at 8.97; in test [8], 8.58; in [10], 8.45.

B3: humanized antibody 6E97 (hz) (antibody, V domains shown)
VH: QVQLVQSGAEVKKPGASVKVSCKASGYTFPYYVIHWVRQAPGQGLEWIGYINPYNAGTKYNEKFKGRATLTSDKSTSTAYMELSSLRSEDTAVYYCARGGVRRYFDYWGQGTTVTVSS
VL: DIQLTQSPSTLSASVGDRVTITCRASQDIGSNLNWLQQKPGGTIKRLISATSSLDSGVPSRFSGSRSGSEYTLTISSLQPDDFATYYCLQYATFPYTFGQGTRLEIKR
B3: the EC50 in test [2] came to 0.146 µg/mL; in test [3], 0.351 µg/mL; in test [4] it was 0.192 µg/mL; in test [9], 0.256 µg/mL. The MFI.Max is 246 MFI in test [2], 14800 MFI in [3], 6250 MFI in test [4] and 144 MFI in [9]. In test [5], this molecule gave a dissociation constant (Kd) of 0.458 nM. Besides, in test [5], the koff was 2.08e-05 s⁻¹. In test [5], this molecule displayed an on-rate (kon) of 45500 M⁻¹ s⁻¹. Besides, the “ADCC reporter … Top” value in test [6] came out at 32.8. The FACS result is 8.78 in test [7], 8.62 in test [8] and 8.54 in test [10].

B4: humanized antibody 9D7 (hz) (antibody, V domains shown)
VH: QVQLQESGPGLVKPSETLSLTCTVSGYSITSDYAWNWIRQPPGKGLEWMGYISYSGSATYSPSLKSRITISRDTSKNQFSLKLSSVTAADTAVYYCARGGIAGRGRWGAMDYWGQGTTVTVSS
VL: DIQMTQSPSSLSASVGDRVTITCKASQNVGTNVAWYQQKPGQSPKALIYSASYRDSGVPDRFSGSGSGTDFTLTISSLQPEDFATYYCQQYKSYPLTFGQGTRLEIKR
As to B4, the EC50 in [2] came to 0.09 µg/mL; in [3] it was 0.283 µg/mL; in test [4], 0.378 µg/mL; in test [9] it was 0.313 µg/mL. For the same molecule, the MFI.Max turned out to be 150 MFI in test [2], 8940 MFI in [3], 4260 MFI in [4] and 128 MFI in [9]. The molecule also gave a Kd in test [5] of under 0.001 nM. Further, the koff in test [5] is under 1e-07 s⁻¹. In test [5], the kon was found to be 22600 M⁻¹ s⁻¹. In addition, the “ADCC reporter … Top” value in [6] is 24.5. The values for the FACS result in test [7], in test [8] and in test [10] were 8.48, 8.54 and 8.34, respectively.

B5: humanized antibody 26D1 (hz) (antibody, V domains shown)
VH: QVQLVQSGAEVKKPGASVKVSCKASGYTFTSYTIQWIKQAPGQGLEWIGYIIPSSGYTNYNQKFKDKATLTADKSSNTAYMELSSLTSEDTAVYYCANNYGNWGFTYWGQGTTVTVSS
VL: DIQMTQSPSTLSASVGDRVTITCKASQNVGSAVTWYQQKPGKAPRLLIYSASNRYTGVPDRFSGSGSGTEFTLTISSLQPDDFATYFCQQYSNYPLTFGQGTRLEIKR
On to B5, for which the values for the EC50 in [2], in test [3] and in [9] were 0.571 µg/mL, 0.228 µg/mL and 0.964 µg/mL, respectively. Moreover, the MFI.Max worked out at 185 MFI in test [2], 9560 MFI in test [3], 12.3 MFI in test [4] and 78 MFI in test [9]. In [5], the Kd was 1.7 nM. This molecule yielded a koff in test [5] of 3.15e-05 s⁻¹. The molecule further showed a kon in [5] of 18500 M⁻¹ s⁻¹. Moreover, the “ADCC reporter (Jurkat-NFAT-luc-CD16-V158 luciferase), EC50” value in test [6] was found to be 0.0452 µg/mL. In addition, the “ADCC reporter … Top” value in test [6] was 18.4. The FACS result in test [7] amounted to 8.89; in test [8], 8.59; in test [10] it was 8.46.
